# Test results taken from patent publication US11180560B2, “Compositions and methods to treat solid tumors” (Wayne State University, priority 2015, dated 2021).
# B1: Abciximab (antibody, chains of the INN, looked up, V domains shown)
# VH: EVQLQQSGTVLARPGASVKMSCEASGYTFTNYWMHWVKQRPGQGLEWIGAIYPGNSDTSYIQKFKGKAKLTAVTSTTSVYMELSSLTNEDSAVYYCTLYDGYYVFAYWGQGTLVTVSA
# VL: EIVLTQSPVTLSVTPGDSVSLSCRASRDISNNLHWFQQTSHESPRLLIKYASQSMSGIPSRFSGSGSGTDFTLSINSVETEDFGMYFCQQTNSWPYTFGGGTKLEIK
# modifications: Fab
# Columns and labels:
# [1] = test system: sensitive EOC cell lines, their Taxotere or Cisplatin resistant counterparts and colon, endometrial, lung, prostate, bladder, hepatocellular cancer cell lines; assay: TACS MTT cell viability, Abciximab in cancer versus non-cancer cells; type: cell-based, human; conditions: increasing doses of Abciximab; cancer cells compared to non-cancer cells; FIG. 1A
# Excerpt: FIGS. 1A-1E. Anti-cancer effects of Abciximab and NIF. (FIG. 1A) Anti-cancer effects of Abciximab in sensitive EOC cell lines (A2780, MDAH-2774, SKOV-3, OV90, TOV21G, OV112D, OV433, and HTB-161) and their Taxotere or Cisplatin resistant counterparts, human macrophages, and other cancer cell lines including colon (HTB-37), endometrial (CRL-1671), lung (CCL-257), prostate (CRL-1740), bladder (HTB-4), and hepatocellular (HB-8065) cancers, in vitro. (FIG. 1B) The combined effect of Abciximab alone or in combination with Cisplatin in both sensitive A2780 and their (FIG. 1C) Cisplatin resistant counterpart in vitro. […] (FIG. 1E) Anti-cancer effects of NIF in both sensitive A2780 and their Cisplatin resistant counterpart in vitro.
# Cell viability was determined using the TACS MTT Cell Proliferation Assay (Trevigen, Gaithersburg, Md.) per the manufacturer's protocol. Briefly, measurement of cell proliferation is based upon the reduction of the tetrazolium salt, 3,[4,5-dimethytthiazol-2-yl]-2,5-diphenyl-tetrazolium bromide (MTT). MTT is reduced to an insoluble formazan dye by mitochondrial enzymes associated with metabolic activity of living cells. […] Absorbance was measured at 570 nm. […] A standard curve was constructed utilizing the OD readings correlating with each standard point and was utilized to determine cell number in the test samples. […]
# [2] = test system: A2780 sensitive and cisplatin resistant EOC cells; assay: TACS MTT cell viability in A2780 cells; type: cell-based, human; conditions: Abciximab combined with cisplatin, CI<1 indicates synergism, FIGS. 1B-1D
# Description: FIGS. 3A-3E. Cell viability in A2780 sensitive and cisplatin resistant EOC cells after treatment with integrin αV and integrin β1 antibody. (FIG. 3A) A2780 chemosensitive and (FIG. 3B) cisplatin resistant EOC cells were treated with or without integrin αV and integrin β1 antibody alone or in combination and viability was assessed using the TACS MTT Cell Proliferation Assay.
# FIGS. 4A and 4B. Integrin αV and integrin β1 antibodies cross-react with a potential soluble target in EOC cell media. To test whether media collected from A2780 EOC cells contains a target that cross-reacts with the integrin αV or integrin β1 monoclonal antibodies, cells were cultured for 48 hours followed by removal of media. Either mouse anti-integrin αV or mouse anti-integrin β1 antibody was incubated with the conditioned cell culture media for 24 hours to block the antibody with the unknown target. […]
# Cell viability was determined using the TACS MTT Cell Proliferation Assay (Trevigen, Gaithersburg, Md.) per the manufacturer's protocol. […] Absorbance was measured at 570 nm. […] A standard curve was constructed utilizing the OD readings correlating with each standard point and was utilized to determine cell number in the test samples.
# Cell Viability was Determined Using the TACS MTT Cell Proliferation Assay (Trevigen, Gaithersburg, Md.) per the manufacturer's protocol. […]
molecule,measurement,setting,value
B1,anti-cancer activity (cell viability),[1],significant
same,effect of combination with cisplatin,[2],synergistic effect
